T1: human CEA on cells (MKN45, LOVO, NCI-H2122, LS174T, CT26/CEA) (human, UniProt P06731 35-685)
T1 sequence: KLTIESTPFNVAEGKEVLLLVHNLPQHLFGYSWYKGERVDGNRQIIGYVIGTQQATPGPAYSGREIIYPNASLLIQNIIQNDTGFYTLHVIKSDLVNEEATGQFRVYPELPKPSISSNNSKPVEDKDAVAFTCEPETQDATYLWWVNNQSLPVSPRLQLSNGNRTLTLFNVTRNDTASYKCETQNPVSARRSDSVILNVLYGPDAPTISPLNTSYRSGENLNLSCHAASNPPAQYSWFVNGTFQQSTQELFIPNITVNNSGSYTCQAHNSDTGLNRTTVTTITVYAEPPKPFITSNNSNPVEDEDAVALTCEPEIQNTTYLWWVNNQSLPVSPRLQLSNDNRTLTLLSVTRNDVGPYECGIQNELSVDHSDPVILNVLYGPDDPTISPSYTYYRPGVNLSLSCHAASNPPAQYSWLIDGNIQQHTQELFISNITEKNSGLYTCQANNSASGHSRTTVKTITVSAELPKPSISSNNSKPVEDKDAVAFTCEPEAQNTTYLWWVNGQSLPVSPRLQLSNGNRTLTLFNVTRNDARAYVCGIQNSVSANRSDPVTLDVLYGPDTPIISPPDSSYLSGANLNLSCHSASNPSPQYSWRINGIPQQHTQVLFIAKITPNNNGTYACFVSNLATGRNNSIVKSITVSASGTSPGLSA

T2: chimeric construct (CHIM) (human)
T2 construct: CEACAM6 AA 1-273 joined to the membrane-peripheral region containing domain B3 of CEA (AA 596-687), C-terminal 6xHis; also called chimeric CEA
T2 chain: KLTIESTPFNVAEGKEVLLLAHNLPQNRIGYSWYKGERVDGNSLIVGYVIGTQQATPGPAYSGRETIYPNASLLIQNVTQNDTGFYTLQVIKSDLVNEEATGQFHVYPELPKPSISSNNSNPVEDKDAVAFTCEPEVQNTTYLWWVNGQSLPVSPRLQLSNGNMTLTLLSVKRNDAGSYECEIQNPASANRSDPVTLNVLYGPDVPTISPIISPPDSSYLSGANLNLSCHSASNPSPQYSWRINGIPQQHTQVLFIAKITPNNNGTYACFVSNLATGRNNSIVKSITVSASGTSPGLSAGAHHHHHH

T3: CHIM (Homo sapiens, UniProt P06731, A174T/A211G/A239V/A261S/A267P/C12H/D173N/E253A/E283V/F203L/F272R/F277P/F63I/H123Q/H61N/H9C/I100T/I112V/I113T/I13V/I230T/I80V/INS244IISP/K155N/K214E/L18V/L245P/L62R/N182G/N204S/N246D/N288K/P266S/P287A/Q16K/Q78L/R139H/R17E/R198M/R224N/R250L/R77S/S228P/S280H/T171V/T206K/T210A/T217I/T247S/T276I/V221A/V273I/V291P/V55A/W11L)
T3 construct: CEACAM6 N-terminal part (fusion partner); 6xHis (C); made in house; host or cells: HEK293-based mammalian cell expression system
T3 sequence (P06731 with tags, fused parts or gaps H9C/W11L/C12H/I13V/Q16K/R17E/L18V/V55A/H61N/L62R/F63I/R77S/Q78L/I80V/I100T/I112V/I113T/H123Q/R139H/K155N/T171V/D173N/A174T/N182G/R198M/F203L/N204S/T206K/T210A/A211G/K214E/T217I/V221A/R224N/S228P/I230T/A239V/INS244IISP/L245P/N246D/T247S/R250L/E253A/A261S/P266S/A267P/F272R/V273I/T276I/F277P/S280H/E283V/P287A/N288K/V291P): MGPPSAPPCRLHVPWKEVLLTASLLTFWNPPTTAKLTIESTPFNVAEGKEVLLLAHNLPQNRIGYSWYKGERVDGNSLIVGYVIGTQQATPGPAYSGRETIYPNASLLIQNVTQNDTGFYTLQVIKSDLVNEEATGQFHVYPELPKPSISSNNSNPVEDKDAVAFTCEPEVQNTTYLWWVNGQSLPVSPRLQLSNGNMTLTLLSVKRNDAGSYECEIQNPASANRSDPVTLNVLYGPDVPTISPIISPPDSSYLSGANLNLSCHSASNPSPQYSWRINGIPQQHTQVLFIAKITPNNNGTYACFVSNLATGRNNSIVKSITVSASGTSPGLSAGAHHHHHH


Columns and labels:
[1] = molecular target: T1, human CEA on cells (MKN45, LOVO, …); assay: cell-based or functional assay
[2] = molecular target: T1, human CEA on cells (MKN45, LOVO, …); assay: cell-based or functional assay; remark: listed apart in the source
[3] = molecular target: T1, human CEA on cells (MKN45, LOVO, …); assay: cell-based or functional assay; remark: listed apart in the source
[4] = molecular target: T2, chimeric construct (CHIM); assay: SPR (BIAcore T-200); antibody captured on anti-human IgG chip, CHIM flowed (1.37-333 nM)
Experimental: For this experiment, anti-human IgG (Fc) antibody was immobilized on an activated CM5 biosensor chip (Cat. No. BR100839, GE Life Sciences). Anti-CEA antibodies were flowed over the chip surface and captured by anti-human Fab antibody. […] For flow cytometry, CEA-expressing cells (10′ cells/well) were incubated with various concentrations of purified affinity-matured antibodies, followed by binding with Alexa Fluro-647-labeled anti-hu IgG Fc antibody (Cat. No. 409320, BioLegend, USA). Cell fluorescence was quantified using a flow cytometer (Guava easyCyte™ 8HT, Merck-Millipore, USA). The equilibrium dissociation constant (KD) was calculated as the ratio koff/kₒₙ.

[5] = molecular target: T2, chimeric construct (CHIM); assay: SPR; binding to CHIM
CHIM = molecular target: T3, CHIM; assay: SPR affinity comparison of affinity matured humanized BGA7592 variants on CHIM; format: binding; conditions: for Ka / Rmax: Table 11, SPR to CHIM

Molecule	EC50, cell killing of MKN45 cells [1]	Emax, cell killing of MKN45 cells [1]	EC50, cell killing of LS174T cells [2]	Emax, cell killing of LS174T cells [2]	Emax, cell killing of NCI-H2122 cells [3]	Kd [4]	koff [4]	kon [4]	Kd [5]	koff [5]	kon [5]	binding activities compared to BGA7592-1F-ph-F (BGA9521) (CHIM)	Ka (CHIM)	Rmax (CHIM)	other results
BGA7413 (antibody, human IgG1, kappa, V domains shown, linker-payload conjugated after reduction of the antibody, DAR 8 profile (structure only as a drawing in Table 18)) VH: QVQLVQSGAEVKKPGASVKVSCKASGYIFTSYYLHWVRQAPGQGLEWIGYINPQTGKTSYAQKFQGRVTMTRDTSTSTVYMELSSLRSEDTAVYYCAREYGNYNYPLDYWGQGTLVTVSS VL: DIQMTQSPSSLSASVGDRVTITCRASENQYGYLAWYQQKPGKVPKLLIYNYKNLVEGVPSRFSGSGSGTDFTLTISSLQPEDVATYYCQHHLGTPYTFGQGTKVEIKR	0.46 nM	87.2	0.88 nM	66.9	81.5	–	–	–	–	–	–	–	–	–	–
BGA2490 (antibody, human IgG1, kappa, V domains shown, linker-payload conjugated after reduction of the antibody, DAR 8 profile (structure only as a drawing in Table 18)) VH: QVQLVQSGAEVKKPGASVKVSCKASGYIFTSYYLHWVRQAPGQGLEWIGYINPQTGKTSYAQKFQGRVTMTRDTSTSTVYMELSSLRSEDTAVYYCAREYGNYNYPLDYWGQGTLVTVSS VL: DIQMTQSPSSLSASVGDRVTITCRASENQYGYLAWYQQKPGKVPKLLIYNYKNLVEGVPSRFSGSGSGTDFTLTISSLQPEDVATYYCQHHLGTPYTFGQGTKVEIKR	0.44 nM	89	0.76 nM	70.3	82.8	–	–	–	–	–	–	–	–	–	EC50, cell killing of NCI-H2122 cells [3]: 0.19 nM
BGA2588 (BGA5384 conjugated with DXD) (antibody, human IgG1, kappa, V domains shown, DXD linker-payload conjugated after reduction of the antibody, DAR 8 profile (structure only as a drawing in Table 18)) VH: QVQLVQSGAEVKKPGASVKVSCKASGYIFTSYYLHWVRQAPGQGLEWIGYINPQTGKTSYAQKFQGRVTMTRDTSTSTVYMELSSLRSEDTAVYYCAREYGNYNYPLDYWGQGTLVTVSS VL: DIQMTQSPSSLSASVGDRVTITCRASENQYGYLAWYQQKPGKVPKLLIYNYKNLVEGVPSRFSGSGSGTDFTLTISSLQPEDVATYYCQHHLGTPYTFGQGTKVEIKR	0.46 nM	85	1.12 nM	69.7	74	–	–	–	–	–	–	–	–	–	EC50, cell killing of NCI-H2122 cells [3]: 0.22 nM
BGA7592-1F (antibody, human IgG1, V domains shown, BGA7592-1 with N54Q, N59S, S61A in VH; human IgG1 wild type / kappa format; also called BGA5366) VH: QVQLVQSGAEVKKPGASVKVSCKASGYIFTSYWLHWVRQAPGQGLEWIGYINPQTGYTSYAQKFQGRVTMTRDTSTSTVYMELSSLRSEDTAVYYCAREYGNYNYPLDYWGQGTLVTVSS VL: DIQMTQSPSSLSASVGDRVTITCRASENIYGYLAWYQQKPGKVPKLLIYNAKNLVEGVPSRFSGSGSGTDFTLTISSLQPEDVATYYCQHHYGTPYTFGQGTKVEIK	–	–	–	–	–	790 nM	0.0015 s⁻¹	1900 M⁻¹ s⁻¹	–	–	–	–	–	–	–
BGA7592-1F-ph-M (antibody, human IgG1, V domains shown, human IgG1/kappa; also called BGA2433) VH: QVQLVQSGAEVKKPGASVKVSCKASGYIFTSYWLHWVRQAPGQGLEWIGYINPQTGYTSYAQKFQGRVTMTRDTSTSTVYMELSSLRSEDTAVYYCAREYGNYNYPLDYWGQGTLVTVSS VL: DIQMTQSPSSLSASVGDRVTITCRASENQYGYLAWYQQKPGKVPKLLIYNTKNLVEGVPSRFSGSGSGTDFTLTISSLQPEDVATYYCQHHLGTPYTFGQGTKVEIK	–	–	–	–	–	99 nM	0.00025 s⁻¹	2500 M⁻¹ s⁻¹	12.6 nM	0.000248 s⁻¹	19700 M⁻¹ s⁻¹	–	–	–	–
BGA8179 (antibody, human IgG1, V domains shown, Built on the BGA7592-1F-ph-M (BGA2433) template; human IgG1/kappa) VH: QVQLVQSGAEVKKPGASVKVSCKASGYIFTSYYLHWVRQAPGQGLEWIGYINPQTGYTSYAQKFQGRVTMTRDTSTSTVYMELSSLRSEDTAVYYCAREYGNYNYPLDYWGQGTLVTVSS VL: DIQMTQSPSSLSASVGDRVTITCRASENQYGYLAWYQQKPGKVPKLLIYNTKNLVEGVPSRFSGSGSGTDFTLTISSLQPEDVATYYCQHHLGTPYTFGQGTKVEIK	–	–	–	–	–	–	–	–	14.2 nM	0.000282 s⁻¹	19900 M⁻¹ s⁻¹	improved binding activities	19900 M⁻¹ s⁻¹	129.1 RU	–
BGA0089 (antibody, human IgG1, V domains shown, Built on the BGA7592-1F-ph-M (BGA2433) template; human IgG1/kappa) VH: QVQLVQSGAEVKKPGASVKVSCKASGYIFTSYWLHWVRQAPGQGLEWIGYINPQTGYTNYAQKFQGRVTMTRDTSTSTVYMELSSLRSEDTAVYYCAREYGNYNYPLDYWGQGTLVTVSS VL: DIQMTQSPSSLSASVGDRVTITCRASENQYGYLAWYQQKPGKVPKLLIYNTKNLVEGVPSRFSGSGSGTDFTLTISSLQPEDVATYYCQHHLGTPYTFGQGTKVEIK	–	–	–	–	–	–	–	–	21.5 nM	0.000394 s⁻¹	18400 M⁻¹ s⁻¹	improved binding activities	18400 M⁻¹ s⁻¹	59.4 RU	–
BGA7592-1F-ph-L (antibody, human IgG1, V domains shown, human IgG1/kappa; also called BGA3676) VH: QVQLVQSGAEVKKPGASVKVSCKASGYIFTSYWLHWVRQAPGQGLEWIGYINPQTGYTSYAQKFQGRVTMTRDTSTSTVYMELSSLRSEDTAVYYCAREYGNYNYPLDYWGQGTLVTVSS VL: DIQMTQSPSSLSASVGDRVTITCRASENQYGYLAWYQQKPGKVPKLLIYNFKNLVEGVPSRFSGSGSGTDFTLTISSLQPEDVATYYCQHHLGTPYTFGQGTKVEIK	–	–	–	–	–	46 nM	0.0003 s⁻¹	6700 M⁻¹ s⁻¹	–	–	–	–	–	–	–
BGA2107 (antibody, human IgG1, V domains shown, Built on the BGA7592-1F-ph-M (BGA2433) template; human IgG1/kappa) VH: QVQLVQSGAEVKKPGASVKVSCKASGYIFTSYWLHWVRQAPGQGLEWIGYINPNTGYTSYAQKFQGRVTMTRDTSTSTVYMELSSLRSEDTAVYYCAREYGNYNYPLDYWGQGTLVTVSS VL: DIQMTQSPSSLSASVGDRVTITCRASENQYGYLAWYQQKPGKVPKLLIYNTKNLVEGVPSRFSGSGSGTDFTLTISSLQPEDVATYYCQHHLGTPYTFGQGTKVEIK	–	–	–	–	–	–	–	–	19.2 nM	0.00038 s⁻¹	19800 M⁻¹ s⁻¹	improved binding activities	19800 M⁻¹ s⁻¹	71.1 RU	–

Reference: US20250115677A1, “Anti-CEA Antibody Drug Conjugates and Methods of Use” (BeiGene Switzerland GmbH, priority 2022, published 2025)
